In the assay the target is 人IgM (human, UniProt P01871 1-453). Description: AMC sensor kinetics, antibody captured on the sensor, human IgM in graded dilutions in solution.
Sequence of 人IgM (P01871 other isoform, or with tags, fused parts or gaps): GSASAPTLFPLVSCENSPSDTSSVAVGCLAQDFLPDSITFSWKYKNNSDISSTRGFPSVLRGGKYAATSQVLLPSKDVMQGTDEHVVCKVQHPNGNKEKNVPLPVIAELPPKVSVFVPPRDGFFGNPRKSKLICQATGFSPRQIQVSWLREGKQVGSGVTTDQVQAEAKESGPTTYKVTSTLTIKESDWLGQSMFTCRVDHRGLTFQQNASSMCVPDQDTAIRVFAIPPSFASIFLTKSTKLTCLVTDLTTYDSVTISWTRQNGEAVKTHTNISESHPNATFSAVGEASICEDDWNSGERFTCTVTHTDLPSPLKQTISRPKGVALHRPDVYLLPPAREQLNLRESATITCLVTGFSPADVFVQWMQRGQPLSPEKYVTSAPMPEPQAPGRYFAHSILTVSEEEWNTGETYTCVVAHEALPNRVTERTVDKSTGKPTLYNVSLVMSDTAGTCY

B1: Ig-M-9G1RMb1抗体 (antibody, mouse IgG1, kappa, V domains shown)
VH: EVQLQQSGAELVKPGASVKLSCTTSGFSIKDAYIHWVKQRPKQGLEWIGRIDPANGYTKYDPKFQGKATITADKSSSTAYMQLRSLTSEDSAVYYCAREPLPHYYAMDYWGQGTSVTVSS
VL: DIQMTQSPSSLSASLGERVSLTCRASQEISGFLSWLQQKPDGTIKRLIYAASTLDSGVPKRFSGSTSGSDYRLKISSLESEDFADYYCIQYTSFPLTFGAGTKLELKR
notes: It was detected with goat anti-mouse IgG-HRP and captured on AMC sensors; also called 抗人IgM抗体
The term Kd denotes the constant that tells how readily two partners part at equilibrium. As usually defined, the koff is a measure of how fast the partners let go of each other. A low value points to slow dissociation. By kon is commonly meant the rate constant with which the complex forms. Low values mean slower complex formation, high ones faster complex formation. As for B1, the dissociation constant Kd was 3.02 pM, the koff was determined as 2.84e-05 s⁻¹ and the kon is 9.41e+06 M⁻¹ s⁻¹.

B2: Ig-M-9G1RMb2抗体 (antibody, V domains shown)
VH: EVQLQQSGAELVKPGASVKLSCTTSGFSIKDAYIHWVKQRPKQGLEWIGRIDPANGYTKYDPKFQGKATITADKSSSTAYMQLRSLTSEDSAVYYCAREPLPHYYAMDYWGQGTSVTVSS
VL: DIQMTQSPSSLSASLGERVSLTCRASQEISGFLSWLQQKPDGTIKRLIYAASTLDSGVPKRFSGSTSGSDYRLKISSLESEDFADYYCLQYTSFPLTFGAGTKLELKR
The molecule B2 displayed a Kd of 4.27 pM, a koff of 6.07e-05 s⁻¹ and a kon of 1.42e+07 M⁻¹ s⁻¹.

(Values after patent CN115677856A (DONGGUAN PENGZHI BIOTECHNOLOGY CO LTD, dated 2023).)
